{"source": "patent US20100095387A1", "about": "“METHODS AND REAGENTS FOR SCREENING NEW DRUGS AND FOR TREATING ION PUMP ASSOCIATED DISORDERS AND DISEASES” (priority 2005, published 2010)", "molecules": {"B1": {"name": "C-Ag15: 15-kD COOH-terminal fragment of agrin created by deleting 37 amino acids from the NH2 terminus of C-Ag20, SEQ. ID NO. 3 (protein)", "chain": "MDPWIGKAAERADYMALAIVDGHLQLSYDLASQPVVLRSTVKVNTNRWLRVRAHREHREGSLQVGNEAPVTSSSPLGATQLDTDGALWLGGLQKLPVGQPLPKAYGTGFVGCLRNVVGHRQLHLLEDAVTKPELRPCPTLNSKLGPEQKLISEEDLNSAVDHHHHHH", "modifications": "Synthetically produced sequence"}}, "key": {"[1]": {"tested_on": "cultured cortical neurons", "assay": "Firing properties of cultured cortical neurons in normal external solution", "assay_type": "cell-based, mouse", "conditions": "co-incubation with C-Ag15"}, "agrin-deficient neurons": {"tested_on": "agrin-deficient neurons", "assay": "Rescue of glutamate-induced Fos expression in agrin-deficient neuron cultures", "assay_type": "cell-based, mouse", "protocol": "FIG. 6 is a graph showing that the 20-kD COOH-terminal region of agrin is the minimal fragment sufficient to rescue an agrin-deficient phenotype. (A) 10-d-old wild-type (filled bars) or agrin-deficient (open bars) cultures were grown for 2 d in media supplemented to 5 nM with the indicated agrin fragment. Cultures were challenged for 5 min with 100 μM glutamate as described previously (Hilgenberg et al., 2002), and the levels of Fos expression were determined. Data were normalized to levels of glutamate-induced Fos expression in mocktreated wild-type cultures. Compared with mock, glutamate responses of homozygous agrin-deficient neurons were rescued to near wildtype levels by either the long C-Ag95z8/0 or short C-Ag20z8/0 fragments (***, P≦0.0005; **, P≦0.002; *, P≦0.02; paired t test). (B) To test the ability of C-Ag15 to antagonize agrin action, 10-d-old agrin-deficient neurons were maintained for 2 d in the presence of 5 nM C-Ag95z0 alone or in combination with 10 nM C-Ag15, and neuronal responses to glutamate were determined as above. […]\nFos expression in cortical cultures was measured by in situ enzyme-linked immunoassay (Hilgenberg et al., 1999). […] The level of Fos expression was determined by monitoring conversion of p-nitrophenyl phosphate to a soluble yellow reaction product at 405 nm."}, "chick skeletal myotubes": {"tested_on": "chick skeletal myotubes", "assay": "Fos expression in chick muscle cultures", "assay_type": "cell-based", "conditions": "1 nM C-Ag15 with 50 pM C-Ag95z8", "protocol": "Chick muscle cultures were prepared from pectoral muscles of 10-11-d-old White Leghorn chick embryos as described previously (Hilgenberg et al., 1999). Experiments were performed on 4-6-d-old cultures.\nFos expression in cortical cultures was measured by in situ enzyme-linked immunoassay (Hilgenberg et al., 1999). In brief, 11-14-d-old neuronal cultures were treated for 10 min with agrin or other agent diluted in NBM or PBS, then washed in cNBM and returned to the incubator for 2 h. Cultures were rinsed in PBS, fixed in ice cold 4% PFA, and blocked in PBS containing 0.1% Triton X-100 and 4% BSA (PBSTB) before being incubated in a primary rabbit antibody against Fos (Ab-2; Oncogene Research Products) and secondary goat antibody against […] conjugated to alkaline phosphatase (Southern Biotechnology Associates, Inc.). The level of Fos expression was determined by monitoring conversion of p-nitrophenyl phosphate to a soluble yellow reaction product at 405 nm.\nTo learn whether inhibition of agrin signaling by C-Ag15 might extend to other neurons or even muscle, mouse hippocampal and cerebellar neurons or chick skeletal myotubes were incubated with 50 pM C-Ag95z8 alone or in the presence of 1 nM C-Ag15, a concentration that blocks activity in cortical neurons. […] However, co-incubation with C-Ag15 inhibited Fos expression in the neurons, but had no effect on muscle. […]"}, "[2]": {"target": "rat α3 subunit of the Na+/K+-ATPase (Rattus norvegicus, UniProt P06687)", "assay": "Na+ imaging of non-neuronal cells transfected with pRcα3", "assay_type": "cell-based"}, "hippocampal neurons": {"tested_on": "hippocampal neurons", "assay": "Fos expression in hippocampal neurons", "assay_type": "cell-based, mouse", "conditions": "1 nM C-Ag15 with 50 pM C-Ag95z8", "protocol": "(§1) Mouse cortical cultures were prepared from newborn or 1-d-old ICR strain mice (Harlan) as described previously (Hilgenberg et al., 1999). For the first 24 h after plating, cells were maintained in neural basal medium (NBM) plus B27 supplements (Invitrogen), and in nonneuronal cell-conditioned NBM (cNBM) plus B27 thereafter, at 37° C. in humidified 5% CO2 atmosphere. To further reduce proliferation of nonneuronal cells, cultures on glass coverslips used for histology were treated with 5 μM 5-fluoro-2-deoxyuridine (Sigma-Aldrich) 3-4 d after plating. Hippocampal and cerebellar cultures were prepared in a similar manner. Experiments were performed on 10-14-d-old cultures. Agrin-deficient neuron cultures were prepared from cortices of embryonic d 18-19 fetuses resulting from matings between mice heterozygous for a mutation in the agrin gene (Gautam et al., 1996). Cultures were prepared and genotyped as described previously (Li et al., 1999), and were maintained as above.\n(§2) Fos expression in cortical cultures was measured by in situ enzyme-linked immunoassay (Hilgenberg et al., 1999). In brief, 11-14-d-old neuronal cultures were treated for 10 min with agrin or other agent diluted in NBM or PBS, then washed in cNBM and returned to the incubator for 2 h. […] The level of Fos expression was determined by monitoring conversion of p-nitrophenyl phosphate to a soluble yellow reaction product at 405 nm. […]"}, "cerebellar neurons": {"tested_on": "cerebellar neurons", "assay": "Fos expression in cerebellar neurons", "assay_type": "cell-based, mouse", "conditions": "1 nM C-Ag15 with 50 pM C-Ag95z8", "protocol": "as §1, §2"}, "cardiac myocytes": {"tested_on": "cardiac myocytes", "assay": "Spontaneous contraction frequency of cultured cardiac myocytes", "assay_type": "cell-based, mouse", "protocol": "FIG. 17. Cardiac myocyte contraction is agrin dependent. Cardiac myocytes were prepared from hearts of individual embryos produced by heterozygous pairings. The genotype of cultures was determined by PCR analysis of tissue samples from each embryo. Myocytes were maintained in 199 medium containing 10% FCS as described (Mitcheson et al., 1998). At 5 days in culture, the frequency of spontaneous contractions was determined by counting contractions in myocytes from 5 random fields at 300× magnification for 30 seconds. Contraction frequency is dependent on Agrn gene dosage such that Agrn−/−>Agrn+/−>Agrn+/+. Addition of C-Ag208 to the growth medium rescues the Agrn mutant phenotype whereas C-Ag15 increased the contraction frequency of wild type myocytes to a level similar to Agrn−/− cells. Bars show mean±SEM for a minimum of 2 independent platings from 3 embryos, except for Agrn+/−treated with C-Ag208, which was a single plating of 2 embryos. All data were collected blind with respect to genotype and agrin treatment. *** p≦0.001. ANOVA with Bonferroni post-hoc pair-wise comparison.\nQuantitative studies confirmed and extended these observations by showing that the frequency of myocyte contraction is dependent on agrin gene dose: Agrn−/− myocyte contraction frequency is about 2-fold higher and Agrn+/− 1.5-fold higher than Agrn+/+ myocytes (FIG. 17). To learn whether the effect of the Agrn mutation on myocyte contraction is a direct result of the loss of agrin expression the effects of growing the cells in media supplemented with C-Ag208, an active agrin fragment, or C-Ag15, the agrin antagonist was next examined."}, "[3]": {"tested_on": "cultured cortical neurons", "assay": "Glutamate excitotoxic injury of cultured cortical neurons, LDH in growth medium", "assay_type": "cell-based", "conditions": "10 minutes glutamate with C-Ag15; preliminary data", "protocol": "FIG. 15. C-Ag15 is neuroprotective for excitotoxic injury. Cultured cortical eurons were treated for 10 minutes with the excitatory neurotransmitter glutamate in the presence of the indicated concentration of C-Ag15 and degree of neuronal injury assessed by monitoring the level of LDH in the growth medium. Data are expressed as a percentage of the LDH in sister cultures treated with glutamate alone. The neuroprotective effect of C-Ag15 is dose-dependent."}}, "note": "“Also recorded” adds a separate entry of the source.", "data": [{"molecule": "B1", "values": [{"measurement": "effect on depolarization and action potential increase induced by C-Ag20 isoforms", "setting": "[1]", "value": "blocked"}, {"measurement": "rescue by C-Ag95z0 blocked", "setting": "agrin-deficient neurons; 10 nM C-Ag15 with 5 nM C-Ag95z0 in growth medium", "value": 54, "unit": "%"}, {"measurement": "effect on glutamate-induced expression of c-fos", "setting": "agrin-deficient neurons; up to 10 nM, wild-type or heterozygous agrin-deficient neurons", "value": "no effect"}, {"measurement": "effect on C-Ag95z8-induced Fos expression", "setting": "chick skeletal myotubes", "value": "no effect"}, {"measurement": "antagonism of active agrin fragments", "setting": "[2]", "value": "effective antagonist"}, {"measurement": "intracellular Na+ in cells expressing the α3 subunit", "setting": "[2]", "value": "unaffected"}, {"measurement": "effect on C-Ag95z8-induced Fos expression", "setting": "hippocampal neurons", "value": "completely inhibited"}, {"measurement": "effect on C-Ag95z8-induced Fos expression", "setting": "cerebellar neurons", "value": "completely inhibited"}, {"measurement": "contraction frequency", "setting": "cardiac myocytes; Agrn+/+ and Agrn+/− myocytes grown in fragment", "value": "significantly increased"}, {"measurement": "contraction frequency", "setting": "cardiac myocytes; Agrn−/− cells grown in fragment", "value": "no effect"}, {"measurement": "neuronal injury, LDH in growth medium", "setting": "[3]", "value": "neuroprotective; also recorded: dose-dependent"}]}]}
